A short description of the series: AT activity coupled with alanine and glutamate dehydrogenases. It counts as biochemical. As to conditions: 10 mM adipaldehyde, alanine and glutamate amino-donors; ND = no activity was detected.

B1: SCO5676: aminotransferase (AT) from Streptomyces coelicolor (protein)
chain: MTALPQERRVVTAIPGPKSQELQARRTAVVAQGVGSTLPVFVARAGGGVIEDVDGNRLIDFGSGIAVTSVGASAEAVVRKASAQLADFTHTCFMVTPYEGYVAVAEALAELTPGDHAKKSALFNSGAEAVENAVKIARAYTKRQAVVVFDHGYHGRTNLTMALTAKNMPYKHGFGPFAPEVYRVPVAYGYRWPTGAENAGPEAAAQAIDQISKQVGAENVAAVIIEPVLGEGGFIEPAKGFLPAIREFASDNGIVFVADEIQSGFCRTGQWFACEDEGIVPDLITTAKGIAGGLPLSAVTGRAEIMDAAHSGGLGGTYGGNPVACAGALGAIETMKELDLNARAKDIEAVMKSRLAAMAEKFDVIGDVRGRGAMIAIELVKDRETKEPNPAATAALAKACHQEGLLVLTCGTYGNVLRFLPPLVIGEDLLNEGLDIIEQAFTRV
For B1, the “Adipaldehyde 10 mM U/mg” value was found to be 0.084 ± 0.015 U/mg.

B2: SM2011_b20379: aminotransferase (AT) from Sinorhizobium meliloti (protein)
chain: MNDRPNSLHALDKQSLVHPYTNLAVHQETGPHVITGGDGIYVVDDEGKRYIEGLAGLFCAGLGFSEQRLVEAATRQLKTMPFYHSFAHKSTEPGIRLAEKLLSIAPVPMSKVFFAGSGSEANDTAIKLIWYYNNALGRPEKKKIISRRKAYHGVTVATASLTGLPFNHRDFDLPIANILHTDCPHYWRFAETGETEEDFATRMANNLEAIILEEGPETIAAFFAEPVMVSGGVITPPKTYFEKVQAVLRKYDILLIADEVICGFGRTGNMFGSETYGLKPDMISCAKQLSAAYMPISALMINAKIADALVDQSRKIGTFSHGFTYGGHPVAAAVALEALTIYEEIDIVGHVRSVAPAFQDRVRKLGEHPLIGEARGVGLVAGLEFVKDKATRENFPPAWQVANQAGKFATARGVLTRGLGDMVSLCPAMIIDDEQIDDLMTRMGLALDDTLAWARAQGHVG
For the molecule B2, the “Adipaldehyde 10 mM U/mg” value was 0.106 ± 0.008 U/mg.

B3: SAV2583: aminotransferase (AT) from Streptomyces avermitilis (protein)
chain: MSALPQERRVVTAIPGPKSQELQARRTAVVAAGVGSVLPVFTTRAGGGIIEDVDGNRLIDFGSGIAVTSVGASAEAVVRRASAQLQDFTHTCFMVTPYEGYVAVAEALAELTPGDHAKKSALFNSGAEAVENAVKIARAYTKRQAVVVFDHGYHGRTNLTMALTAKNMPYKNGFGPFAPEVYRVPVAYGYRWLTGPENAGAEASAQAIDMINKQIGADNVAAIIIEPVLGEGGFIEPAKGFLPAISKFAKDNGIVFVADEIQSGFCRTGQWFACEDEGIVPDLITTAKGIAGGLPLAAVTGRAEIMDAAHAGGLGGTYGGNPVACAGALGAIETMKELDLNAKAKNIEAVMKARLGAMAEKFDIIGDVRGRGGMIAIELVKDRDTKEPNPEAAGALAKACHQEGLLVLTCGTYGNVLRFLPPLVIGEDLLNEGLDIIEQAFSRI
Consider B3, for which the “Adipaldehyde 10 mM U/mg” value is given as 0.136 ± 0.011 U/mg.

B4: Mll7127: aminotransferase (AT) from Rhizobium loti (protein)
chain: MLNQSNELNAWDRDHFFHPSTHMGTHARGESPTRIMAGGEGVTVWDNNGRKSIDAFAGLYCVNVGYGRQKIADAIATQAKNLAYYHAYVGHGTEASITLAKMIIDRAPKGMSRVYFGLSGSDANETNIKLIWYYNNVLGRPEKKKIISRWRGYHGSGVMTGSLTGLDLFHNAFDLPRAPVLHTEAPYYFRRTDRSMSEEQFSQHCADKLEEMILAEGPETIAAFIGEPILGTGGIVPPPAGYWEKIQAVLKKYDVLLVADEVVTGFGRLGTMFGSDHYGIKPDLITIAKGLTSAYAPLSGVIVADRVWQVLVQGSDKLGSLGHGWTYSAHPICVAAGVANLELIDEMDLVTNAGETGAYFRAELAKAVGGHKNVGEVRGDGMLAAVEFVADKDDRVFFDASQKIGPQVATALAASGVIGRAMPQGDILGFAPPLCLTREQADIVVSKTADAVKSVFANL
Consider B4, for which the “Adipaldehyde 10 mM U/mg” value was determined as 0.063 ± 0.001 U/mg.

B5: PP4421: aminotransferase (AT) from Pseudomonas putida (protein)
chain: MDKQKQDLISQQDRGAVLHPFTQLKDFASGKAGDPTIIETAKGITITDATGREYIDGFAGLYCMNVGYGRTEVAEAISKQAHKLAYYHTYAAHTTEELARLSDRLVKMAPGKMSKVFYGMSGSDANETQAKLVWYYNNLRGKPNKKKIIARERGYHGCSVVSGSMTGMSFYHDHMDLPIAGILRTGAPHYYWGAEPGETELEFSARRARELEELILREGPDTIGAFIAEPVLGTGGITPPPEGYWAAVQPVLKKYDILLIADEVITGFGRTGAMFGCDKYGIEPDLITVAKGLTSAYAPLSASIVGEKVYKVMEEGADRVGAFSHGYTYSGHPIGVAAANAVLDIVEGENIPAHVDKVGQYFQKSMQETFSSLPIVGEVRGVGMMAAIEFVADPATKKRFDPALKVGARISKAARDRNLIARAMPHGEILGFAPPLVTTEQEVDRIISIAHEAVLSVLDELKV
As for B5, the “Adipaldehyde 10 mM U/mg” value was determined as 0.061 ± 0.001 U/mg.

B6: Syrb2: aminotransferase (AT) from Pseudomonas syringae (protein)
chain: MSKKFALTAEQRASFEKNGFIGPFDAYSPEEMKETWKRTRLRLLDRSAAAYQDLDAISGGTNIANYDRHLDDDFLASHICRPEICDRVESILGPNVLCWRTEFFPKYPGDEGTDWHQADTFANASGKPQIIWPENEEFGGTITVWTAFTDANIANGCLQFIPGTQNSMNYDETKRMTYEPDANNSVVKDGVRRGFFGYDYRQLQIDENWKPDEASAVPMQMKAGQFIIFWSTLMHASYPHSGESQEMRMGFASRYVPSFVHVYPDSDHIEEYGGRISLEKYGAVQVIGDETPEYNRLVTHTTRGKKFEAV
For B6, the “Adipaldehyde 10 mM U/mg” value was 0.040 ± 0.001 U/mg.

B7: SM2011_b21186: aminotransferase (AT) from Sinorhizobium meliloti (protein)
chain: MTSLTDRKNAAISRGVGMTTQVYADRAENAEIWDKEGNRYIDFAAGIAVVNTGHRHPKVIAAVKAQLDRFTHTCHQVVPYENYVHLAERLNAIVPGDFAKKTIFVTTGAEAVENAVKIARAATGRQAVVAFGGGFHGRTFMGMALTGKVVPYKVGFGAMPADVFHAPFPIELHGVTVEQSLSALKKLFAADVDPARVAAIIIEPVQGEGGFYPVPTAFMKALREVCDQHGILLIADEVQTGFARTGKLFAMEHHGVAPDLTTMAKSLAGGFPLAAVTGRAEIMDAPGPGGLGGTYGGNPLGIAAAHAVLDVIAEENLCERANQLGNRLKQRLAAIREKAPEIVDIRGPGFMNAVEFNDVRTNLPSAEFANKVRLLALEKGLILLTCGVHGNVIRFLAPITIQDEVFAEALDTIEASILEARG
On to B7, for which the “Adipaldehyde 10 mM U/mg” value is 0.051 ± 0.014 U/mg.

B8: SM2011_c04388: aminotransferase (AT) from Sinorhizobium meliloti (protein)
chain: MNAHNKPNAPVLDSYWMPFTANRQFKAAPRLLAAAEGMHYTSVDGRTVLDGTAGLWCVNAGHGRRQIAAAVERQLSTMDFAPSFQMGHPIAFDFAERLAEIAPGPAGAKLDRVFFTGSGSESVDTALKMALAYQRSIGQGTRTRLIGRERGYHGVGFGGISVGGIVNNRRVFPQLPGSDHLRHTHDPAKNAFVKGQPEHGAELADDLERLVALHGAETIAACIVEPVAGSTGVLIPPKGYLERLRAICDKHGILLIFDEVITGFGRLGAAFATDYFGVTPDIVTTAKGLTNGAIPMGAVFASRKVHDALMHGPEGQIELFHGYTYSGHPAACAAGIATLDIYRDEGLMTRAAEIEGDWHEAMHSMKGLPHVIDIRTIGLIAGIELQSRDGAPGARAYDVFVDCFERGLLIRVTGDIIAFSPPLIAEKQHFGEIVSILADALKRVK
For B8, the “Adipaldehyde 10 mM U/mg” value is recorded as 0.152 ± 0.001 U/mg.

B9: SM2011_b20423: aminotransferase (AT) from Sinorhizobium meliloti (protein)
chain: MLERSNELTAWDRDHFFHPSTHMGMHARGETPTRVIGGGEGVYITDISGKRSLDAFAGLYCVNVGYGRQKIADAIAEQAKNLAYYHAYVGHGTEASIRLSKMIIDRAPEGMSRVYFGLSGSDANETNIKLIWYYNNILGRPEKKKIISRWRGYHGSGVMTGSLTGLHLFHNAFDLPRAPILHTEAPYYFRRPDRSMSEEQFSQYCADKLEEMILAEGPDTVAAFIGEPILGTGGIVPPPKGYWEKIQAVLQKYDILLVADEVVTGFGRLGTMFGSDHYGIKPDLITIAKGLTSAYAPLSGTIVSDKLWQVLVKGSDELGAIGHGWTYSAHPICAAAGIANLELIDELGIVENAGSTGAYFRAELQKAVGDHRHVGEVRGDGLMAAIEFVEDRDDRAFFDPGRKVGPQVAAALLERGVIGRAMPQGDILGFAPPLCLTRDEADIVVKAAADTIQSVLGR
With B9, the “Adipaldehyde 10 mM U/mg” value amounted to 0.162 ± 0.002 U/mg.

B10: SM2011_c01534: aminotransferase (AT) from Sinorhizobium meliloti (protein)
chain: MSNRLNTTPNDLSAFWMPFTANRQFKKEPRLFVGAKDMYYTTHDGRTVLDGTAGLWCVNAGHCRPKITEAIREQAGELDYAPAFQLGHPKAFELANRLVDIAPEGMNHVLYTNSGSESVDTALKVALAYHRAKGNGSRFRLIGRERGYHGVNFGGISVGGIVANRKMFGTLLTGVDHLPHTHLPAKNAFSRGEPEHGADLAAELERIVTLHDASTVAAVIVEPVAGSTGVLIPPKGYLQKLREICTKHGILLIFDEVITGYGRLGTPFAAQYFDVKPDIITTAKGLTNGVIPMGAVFVTSEIHDAFMTGPEHLIEFFHGYTYSGNPIASAAALGTLDTYREEGLLTRAAELAPYWEEALHSLKDCPHVIDIRNIGLIGAVELEPIAGEPTKRAFSAFLKAYEKGLLIRTTGDIIALSPPLIIEKRQIDELFDKLRDVLKNNI
As for B10, the “Adipaldehyde 10 mM U/mg” value is 0.021 ± 0.003 U/mg.

B11: Spo3471: aminotransferase (AT) from Ruegeria pomeroyi (protein)
chain: MATITNHMPTAELQALDAAHHLHPFSANNALGEEGTRVITRARGVWLNDSEGEEILDAMAGLWCVNIGYGRDELAEVAARQMRELPYYNTFFKTTHVPAIALAQKLAELAPGDLNHVFFAGGGSEANDTNIRMVRTYWQNKGQPEKTVIISRKNAYHGSTVASSALGGMAGMHAQSGLIPDVHHINQPNWWAEGGDMDPEEFGLARARELEEAILELGENRVAAFIAEPVQGAGGVIVAPDSYWPEIQRICDKYDILLIADEVICGFGRTGNWFGTQTMGIRPHIMTIAKGLSSGYAPIGGSIVCDEVAHVIGKDEFNHGYTYSGHPVAAAVALENLRILEEENILDHVRNVAAPYLKEKWEALTDHPLVGEAKIVGMMASIALTPNKASRAKFASEPGTIGYICRERCFANNLIMRHVGDRMIISPPLVITPAEIDEMFVRIRKSLDEAQAEIEKQGLMKSAA
For B11, the “Adipaldehyde 10 mM U/mg” value is listed as 0.021 ± 0.001 U/mg.

The values above are taken from patent US12371675B2, “Process and microorganism for synthesis of adipic acid from carboxylic acids” (THE GOVERNING COUNCIL OF THE UNIVERSITY OF TORONTO, priority 2015, dated 2025).
